Data on one substance can be found in publication PMC3701943.

In the assay the target is W590S murine ABCA1-GFP fusion (murine) (UniProt P41233). Briefly: flow cytometry on cells. For orientation: Flow cytometry measures light scatter and fluorescence of single cells or particles in a stream.
UniProt P41233, sequence (P41233 whole entry W590S, the tested form may be a part): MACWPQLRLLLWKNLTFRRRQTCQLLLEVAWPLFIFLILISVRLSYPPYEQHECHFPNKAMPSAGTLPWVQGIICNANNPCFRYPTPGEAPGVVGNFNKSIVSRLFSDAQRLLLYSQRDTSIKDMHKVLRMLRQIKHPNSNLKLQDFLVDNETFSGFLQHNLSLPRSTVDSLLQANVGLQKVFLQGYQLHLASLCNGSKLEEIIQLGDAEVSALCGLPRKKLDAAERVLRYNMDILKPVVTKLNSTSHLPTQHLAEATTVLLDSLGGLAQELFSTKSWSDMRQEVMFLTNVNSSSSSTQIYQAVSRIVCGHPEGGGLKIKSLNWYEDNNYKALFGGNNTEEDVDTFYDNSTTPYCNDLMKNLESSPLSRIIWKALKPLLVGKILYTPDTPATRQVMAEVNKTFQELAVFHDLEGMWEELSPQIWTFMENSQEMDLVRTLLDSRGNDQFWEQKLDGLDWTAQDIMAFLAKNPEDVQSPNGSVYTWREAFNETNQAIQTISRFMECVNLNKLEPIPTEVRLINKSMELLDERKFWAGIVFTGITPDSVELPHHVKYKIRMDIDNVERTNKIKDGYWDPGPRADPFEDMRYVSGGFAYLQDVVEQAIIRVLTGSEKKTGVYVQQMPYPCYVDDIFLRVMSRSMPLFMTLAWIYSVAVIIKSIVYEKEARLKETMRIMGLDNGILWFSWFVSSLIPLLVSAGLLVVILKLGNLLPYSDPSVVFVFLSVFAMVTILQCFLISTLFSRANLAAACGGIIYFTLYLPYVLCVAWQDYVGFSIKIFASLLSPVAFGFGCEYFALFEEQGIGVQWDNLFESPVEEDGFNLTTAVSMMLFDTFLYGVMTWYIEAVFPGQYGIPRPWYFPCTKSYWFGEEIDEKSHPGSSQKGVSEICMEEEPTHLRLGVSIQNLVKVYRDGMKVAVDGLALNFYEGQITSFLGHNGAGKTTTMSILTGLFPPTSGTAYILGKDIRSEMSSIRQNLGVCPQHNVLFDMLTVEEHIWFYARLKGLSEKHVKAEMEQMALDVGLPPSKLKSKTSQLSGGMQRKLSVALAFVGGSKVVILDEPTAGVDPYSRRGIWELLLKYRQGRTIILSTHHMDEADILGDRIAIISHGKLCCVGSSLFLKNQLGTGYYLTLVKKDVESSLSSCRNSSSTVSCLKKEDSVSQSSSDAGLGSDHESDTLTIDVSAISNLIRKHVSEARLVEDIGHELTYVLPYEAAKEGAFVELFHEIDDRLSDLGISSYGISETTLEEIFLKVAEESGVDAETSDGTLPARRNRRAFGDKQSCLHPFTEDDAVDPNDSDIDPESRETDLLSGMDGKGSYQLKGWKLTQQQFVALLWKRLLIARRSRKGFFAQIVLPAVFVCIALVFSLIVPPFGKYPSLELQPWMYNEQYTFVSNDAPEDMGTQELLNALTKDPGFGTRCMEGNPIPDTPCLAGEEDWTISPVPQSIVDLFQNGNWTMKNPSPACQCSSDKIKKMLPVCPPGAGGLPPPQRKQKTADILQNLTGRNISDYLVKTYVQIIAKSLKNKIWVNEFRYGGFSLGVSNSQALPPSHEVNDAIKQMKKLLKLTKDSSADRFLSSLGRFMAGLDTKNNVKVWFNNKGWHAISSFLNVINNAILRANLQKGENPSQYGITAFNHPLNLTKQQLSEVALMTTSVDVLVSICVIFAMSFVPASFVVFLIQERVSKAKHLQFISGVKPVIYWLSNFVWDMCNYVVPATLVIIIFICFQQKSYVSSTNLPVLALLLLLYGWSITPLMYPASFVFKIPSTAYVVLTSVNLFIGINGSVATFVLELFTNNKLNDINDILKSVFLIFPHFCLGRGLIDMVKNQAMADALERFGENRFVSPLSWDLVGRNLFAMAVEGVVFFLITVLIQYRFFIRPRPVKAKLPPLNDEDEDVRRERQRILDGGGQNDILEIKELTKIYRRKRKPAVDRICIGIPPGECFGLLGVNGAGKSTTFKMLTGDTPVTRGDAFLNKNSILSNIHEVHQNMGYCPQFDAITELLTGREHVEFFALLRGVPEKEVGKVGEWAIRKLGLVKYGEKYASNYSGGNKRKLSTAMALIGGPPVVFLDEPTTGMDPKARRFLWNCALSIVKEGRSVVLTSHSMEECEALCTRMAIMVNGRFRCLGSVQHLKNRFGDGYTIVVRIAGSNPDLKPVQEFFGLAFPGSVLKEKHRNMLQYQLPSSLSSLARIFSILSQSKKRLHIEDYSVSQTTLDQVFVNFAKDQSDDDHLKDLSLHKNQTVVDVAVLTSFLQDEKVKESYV

In turn, “Alexa647-labeled apoAI (from UniProt P02647 25-267) (ligand)” displayed a fold apoAI binding against control HEK cells of 6 fold.
